Assay results as given in patent publication US20030040614.

System: GsuI restriction endonuclease
Conditions: methylation of top strand; bottom strand 664; B+ buffer, 30 uM AdoMet, 37 C 3 h

AGTTCTGGAGCATCGTTCACCGGTTACAAC / TGGTTGTAACCGGTAACGGATGCTCCAGAACTTCTC [duplex #1 GsuI site]
activity (3H radioactivity (units not stated)): 13200
